Key:
[1] = Bioluminescence emission spectra; type: physicochemical; conditions: emission spectrum with native coelenterazine
Procedure: (§1) Serum stability measurements were done by mixing 0.5 μl dilute Luciferase with either 20 μl mouse serum or 50 μl rat serum (Equitech-Bio, Kerrville, Tex.) placing the sample in a 37° C. incubator, and removing aliquots for activity testing. To calculate serum half-lives, mono-exponential decay curves were fit to the serum stability data using a Nelder/Mead Simplex non-linear least squares minimization algorithm provided by the Octave numerical programming language. Emission spectra at ambient temperature were measured using a Triax 320 (Horiba Jobin Yvon, Edison, N.J.), which incorporates an optical grating device with a liquid N2 cooled CCD detector.

[2] = Luciferase activity of purified RLuc mutants (light output integrated over 10 s, luminometer); type: biochemical; conditions: relative to native enzyme; for Activity (relative to RLuc) bc: benzyl-coelenterazine; for Activity (relative to RLuc) bdc: bisdeoxycoelenterazine; for Activity (relative to RLuc) cp: coelenterazine-cp; for Activity (relative to RLuc) n: coelenterazine-n; for Activity (relative to RLuc) native: native coelenterazine
Description: Luminometer Calibration: Light measurements were made using a Turner 20/20 and later a Turner 20/20n luminometer (Turner Designs, Sunnyvale, Calif.). The luminometers were calibrated to absolute units (photons/s) using the luminol light standard performed in dimethyl sulfoxide (DMSO). No corrections were applied for the spectral sensitivity of the luminometer, as the spectral peak of luminol chemiluminescence in DMSO (486 nm) is close to the spectral peak of Renilla Luciferase bioluminescence (482 nm).
Characterization of Renilla Luciferase Mutants: Luciferase activity was measured by adding 1 μl of sample (diluted as necessary in EB containing 1% HSA) to 100 μl room temperature 100 mM sodium phosphate buffer (pH 7), manually adding 1 μl of 0.5 μg/μl coelenterazine or analog, manually mixing, and reading for 10 s in a luminometer. The time between the addition of the luciferin and the start of measurement was approximately 4 s.

[3] = Serum stability in mouse serum at 37° C.; type: in vitro ADME; conditions: mouse serum, 37° C., mono-exponential fit
Procedure: as §1

[4] = Quantum yield measurements; type: biochemical; conditions: for Quantum Yield (%) bc: benzyl-coelenterazine; for Quantum Yield (%) bdc: bisdeoxycoelenterazine; for Quantum Yield (%) cp: coelenterazine-cp; for Quantum Yield (%) n: coelenterazine-n; for Quantum Yield (%) native: native coelenterazine
Procedure: For quantum yield measurements, separate 1 μl drops of protein (about 2 pm) and substrate (0.2 pm) were placed in a tube, 100 μl of 100 mM sodium phosphate buffer (pH 7) was injected by the luminometer to mix, and the total light output was integrated (generally 5-10 min). For coelenterazine-n, the protein amount was increased 10 fold and the acquisition time lengthened to insure the reaction approached completion.

[5] = Serum stability in rat serum at 37° C.; type: in vitro ADME; conditions: mono-exponential fit
Procedure: as §1

| Activity (relative to RLuc) bc [2] | Activity (relative to RLuc) bdc [2] | Activity (relative to RLuc) cp [2] | Activity (relative to RLuc) n [2] | Activity (relative to RLuc) native [2] | Molecule | Wavelength (nm) mean [1] [nm] | Wavelength (nm) peak [1] [nm] | Serum τ1/2 (h) mouse [3] [h] | Quantum Yield (%) bc [4] [%] | Quantum Yield (%) bdc [4] | Quantum Yield (%) cp [4] [%] | Quantum Yield (%) n [4] [%] | Quantum Yield (%) native [4] [%] | Serum τ1/2 (h) rat [5] [h] |
| --- | --- | --- | --- | --- | --- | --- | --- | --- | --- | --- | --- | --- | --- | --- |
| 1.2 | 2.4 | 0.58 | 1.4 | 1.7 | A55T/C124A: RLuc mutant A55T/C124A (protein) MASKVYDPEQRKRMITGPQWWARCKQMNVLDSFINYYDSEKHAENAVIFLHGNATSSYLWRHVVPHIEPVARCIIPDLIGMGKSGKSGNGSYRLLDHYKYLTAWFELLNLPKKIIFVGHDWGAALAFHYSYEHQDKIKAIVHAESVVDVIESWDEWPDIEEDIALIKSEEGEKMVLENNFFVETMLPSKIMRKLEPEEFAAYLEPFKEKGEVRRPTLSWPREIPLVKGGKPDVVQIVRNYNAYLRASDDLPKMFIESDPGFFSNAIVEGAKKFPNTEFVKVKGLHFSQEDAPDEMGKYIKSFVERVLKNEQ | 504 | 486 | 30 | 3.9 ± 0.1 | (1.0 ± 0.9) × 10^−3% | 4.5 ± 0.1 | 5.7 ± 0.1 | 5.7 ± 0.2 | 29 |
| 1.4 | 2.6 | 1.7 | 1.4 | 1.7 | C124A/S130A: RLuc mutant C124A/S130A (protein) MASKVYDPEQRKRMITGPQWWARCKQMNVLDSFINYYDSEKHAENAVIFLHGNAASSYLWRHVVPHIEPVARCIIPDLIGMGKSGKSGNGSYRLLDHYKYLTAWFELLNLPKKIIFVGHDWGAALAFHYAYEHQDKIKAIVHAESVVDVIESWDEWPDIEEDIALIKSEEGEKMVLENNFFVETMLPSKIMRKLEPEEFAAYLEPFKEKGEVRRPTLSWPREIPLVKGGKPDVVQIVRNYNAYLRASDDLPKMFIESDPGFFSNAIVEGAKKFPNTEFVKVKGLHFSQEDAPDEMGKYIKSFVERVLKNEQ | 498 | 482 | 18 | 3.4 ± 0.04 | (6.7 ± 0.3) × 10^−3% | 5.0 ± 0.1 | 5.9 ± 0.2 | 5.3 ± 0.1 | 14 |
| 2.1 | 2.6 | 1.9 | 1.9 | 2.5 ± 0.3 | C124A/K136R: RLuc mutant C124A/K136R (protein) MASKVYDPEQRKRMITGPQWWARCKQMNVLDSFINYYDSEKHAENAVIFLHGNAASSYLWRHVVPHIEPVARCIIPDLIGMGKSGKSGNGSYRLLDHYKYLTAWFELLNLPKKIIFVGHDWGAALAFHYSYEHQDRIKAIVHAESVVDVIESWDEWPDIEEDIALIKSEEGEKMVLENNFFVETMLPSKIMRKLEPEEFAAYLEPFKEKGEVRRPTLSWPREIPLVKGGKPDVVQIVRNYNAYLRASDDLPKMFIESDPGFFSNAIVEGAKKFPNTEFVKVKGLHFSQEDAPDEMGKYIKSFVERVLKNEQ | 498 | 482 | 12 | 3.3 ± 0.1 | (7.1 ± 0.3) × 10^−3% | 5.1 ± 0.1 | 6.0 ± 0.1 | 5.4 ± 0.1 | 11 |
| 1.4 | 1.7 | 1.6 | 1.6 | 1.9 | C124A/M253L: RLuc mutant C124A/M253L (protein) MASKVYDPEQRKRMITGPQWWARCKQMNVLDSFINYYDSEKHAENAVIFLHGNAASSYLWRHVVPHIEPVARCIIPDLIGMGKSGKSGNGSYRLLDHYKYLTAWFELLNLPKKIIFVGHDWGAALAFHYSYEHQDKIKAIVHAESVVDVIESWDEWPDIEEDIALIKSEEGEKMVLENNFFVETMLPSKIMRKLEPEEFAAYLEPFKEKGEVRRPTLSWPREIPLVKGGKPDVVQIVRNYNAYLRASDDLPKLFIESDPGFFSNAIVEGAKKFPNTEFVKVKGLHFSQEDAPDEMGKYIKSFVERVLKNEQ | 488 | 471 | 15 | 3.5 ± 0.1 | (7.6 ± 0.3) × 10^−3% | 5.1 ± 0.2 | 5.8 ± 0.1 | 5.5 ± 0.1 | 10 |
| 0.83 | 0.86 | 0.57 | 0.72 | 1.0 | C124A/M295I: RLuc mutant C124A/M295I (protein) MASKVYDPEQRKRMITGPQWWARCKQMNVLDSFINYYDSEKHAENAVIFLHGNAASSYLWRHVVPHIEPVARCIIPDLIGMGKSGKSGNGSYRLLDHYKYLTAWFELLNLPKKIIFVGHDWGAALAFHYSYEHQDKIKAIVHAESVVDVIESWDEWPDIEEDIALIKSEEGEKMVLENNFFVETMLPSKIMRKLEPEEFAAYLEPFKEKGEVRRPTLSWPREIPLVKGGKPDVVQIVRNYNAYLRASDDLPKMFIESDPGFFSNAIVEGAKKFPNTEFVKVKGLHFSQEDAPDEIGKYIKSFVERVLKNEQ | 497 | 480 | 5.0 |  |  |  |  |  | 4.9 |
| 1.0 | 1.3 | 1.1 | 1.0 | 1.1 | C124A/K300A: RLuc mutant C124A/K300A (protein) MASKVYDPEQRKRMITGPQWWARCKQMNVLDSFINYYDSEKHAENAVIFLHGNAASSYLWRHVVPHIEPVARCIIPDLIGMGKSGKSGNGSYRLLDHYKYLTAWFELLNLPKKIIFVGHDWGAALAFHYSYEHQDKIKAIVHAESVVDVIESWDEWPDIEEDIALIKSEEGEKMVLENNFFVETMLPSKIMRKLEPEEFAAYLEPFKEKGEVRRPTLSWPREIPLVKGGKPDVVQIVRNYNAYLRASDDLPKMFIESDPGFFSNAIVEGAKKFPNTEFVKVKGLHFSQEDAPDEMGKYIASFVERVLKNEQ | 497 | 481 | 3.5 |  |  |  |  |  | 3.9 |
| 1.3 | 1.6 | 0.95 | 1.5 | 1.7 | C124A/A143M: RLuc mutant C124A/A143M (protein) MASKVYDPEQRKRMITGPQWWARCKQMNVLDSFINYYDSEKHAENAVIFLHGNAASSYLWRHVVPHIEPVARCIIPDLIGMGKSGKSGNGSYRLLDHYKYLTAWFELLNLPKKIIFVGHDWGAALAFHYSYEHQDKIKAIVHMESVVDVIESWDEWPDIEEDIALIKSEEGEKMVLENNFFVETMLPSKIMRKLEPEEFAAYLEPFKEKGEVRRPTLSWPREIPLVKGGKPDVVQIVRNYNAYLRASDDLPKMFIESDPGFFSNAIVEGAKKFPNTEFVKVKGLHFSQEDAPDEMGKYIKSFVERVLKNEQ | 497 | 480 | 30 | 3.5 ± 0.1 | (6.3 ± 0.7) × 10^−3% | 4.8 ± 0.1 | 5.8 ± 0.2 | 5.2 ± 0.3 | 29 |

— patent US7842469B2, “Bioluminescence resonance energy transfer (BRET) systems and methods of use thereof” (Stanford University, priority 2005, dated 2010)
